Fewer inactive variants are shown than the library holds.
B1: TPR 5TU (parent)
chain: GGAUCUUCUCGAUCUAACAAAAAAGACAAAUCUGCCACAAAGCUUGAGAGCAUCUUCGGAUGCAGAGGCGGCAGCCUUCGGUGGCGCGAUAGCGCCAACGUUCUCAACUAUGACACGCAAAACGCGUGCUCCGUUGAAUGGAGUUUAUCAUG

Variants of: B1
Assay: polymerase ribozyme fitness, log enrichment relative to wild type (log ratio); higher = more active; in vitro selection for triplet polymerase activity
Summary of the method: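 Libraries of mutants in each subunit of a heterodimeric triplet polymerase ribozyme were generated by PCR and transcribed. In triplicate, each went through one in vitro selection round: annealing with biotinylated primer, partner subunit and triplets; frozen incubation at −7 °C; gel excision of extended constructs; streptavidin-bead capture; RT-PCR. Fitness, taken from Illumina sequencing of input and output libraries, is the logarithm of a genotype's enrichment over wild-type enrichment, averaged across replicates with inverse-variance weights. The logarithm is base 2, and genotypes needed ≥10 input reads and ≥1 read per output to be kept.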

| Variant | polymerase ribozyme fitness (log ratio) |
| --- | --- |
| GGAUCUUCUCGAUCUAACAAAAAAGACAAAUCUGCCACAAAGCUUGAGAGCAUCUUCCGAUGCAGAGGCGGCAGCCUUCGGUGGCGUGAUAGCGCCAACGUUCUCAACUAUGAUACGCAAAACGCGUGCUCCGUUGAAUGGAGUUUAUCAUG [G58C C87U C114U] | -2.21 |
| GGAUCUUCUUGACCUAACAAAAAAGACAAAUCUGCCACAAAGCUUGAGAGCUUCUUCGGAUGCAGAGGCGGCAGCCUUCGGUGGCGCGAUAGCGCAAACGUUCUCAACUAUGACACGCAAAACGCGUGCUCCGUUGAAUGGAGUUUAUCAUG [C10U U13C A52U C96A] | -3.64 |
| GGAUCUUCUCGAUCUAACAAAAAAGACAAAUCUGCCACAAAGCUUGAGAGCAUCUUCGGAUGCAGAGGCGGCAGCCUUCGGUGGCGCGAUAGCGCGAACGUUCUCAACUAUGACACGCACAACGCGUGCUCCGUUGAAUGGAGUUCAUCAUG [C96G A120C U146C] | -0.778 |
| GGAUCUUCUCGAUGUAACAAAAAAGACAAAUCUGCCACAAAGCUUGAGAGCAUCUUCGGAUGCAGAGGCGGCAGCCUUCGGUGGCGCGAUAGCGCCCACGUUCUCAACUUUGACACGCAGAACGCGUGCUCCGAUGAAUGGAGUUUAUCAUG [C14G A97C A110U A120G U134A] | ≤ -4.2 |
| GGAUCUUCUCGAUCUAACAAAAAAGACAAAUCUGCCACAAAGCUUGAGAGCAUCUACGGAUGCAGAGGCGGCAGCCUUCGGUGGCGCGAUAGAGCCAACGUUCUCGACUAUGACACGCAAAACGCGUGCUCCGUUGAAUGGAGUUUAUCAUG [U56A C93A A106G] | -1.97 |
| GGAUCUUCUCGAUCUAACAAAAAAGACAAAUCUGCCACAAAGCUUGAGACCAUCUUCGGAUGCAGAGGCGGCAGCCUUCGGUGGCGCGAUAGCGCGAACGUUCUCAACUAUGACACGCAAAACGCGUGCUCCGUUGAAUGGAGUUUAUCAUG [G50C C96G] | -2.66 |
| GGAUCUUCUCGAUCUAACAAAAAAGACAAAUGUGCCACAAACCUUGGGAGCAUCUUCGCAUGCAGAGGCGGCAGCCUUCGGUGGCGCGAUUGCGCCAACGUUCUCAGCUAUGACACGCAAAACGCGUGCUCCGUUGAAUGGAGUUUAUCAUG [C32G G42C A47G G59C A91U A107G] | ≤ -4.2 |
| GGAUCUUCUCGAUCUAACAAAAAAGACAAAUCUGCCACAAAGCUUGAGAGCAACUUCCUAUGCAGAGGCGGCAGCCUUCGGUGGCGCGAUGGCGCCAACGUUCUCAAAUAUGACACGCAAAACUCUUGCUCCGUUGAAUGGAGUUUAUCAUG [U53A G58C G59U A91G C108A G124U G126U] | ≤ -4.2 |
| GGAUCUUCUCGAUCUAACAAAAAAGACAAAUCUGCCACAAAGCUUGAGAGCAUCUUCGGAUGCAGAGGCGGCAGCCUUCGGUGGCGCGAUAGAGCCAACGUUCUCAACUAUGACACGCAAAACGCGUCCUCGGUUGAGUGGAGUUUAGCAUG [C93A G128C C132G A138G U148G] | ≤ -4.2 |
| GGAUCUUCUCGAUUUAACAAAAAAGACAAAUCUGCCACAAAGCAUGAGAGCAUCUUCGGAUGCAGAGGCGGCAGCCUUCGGUGGCGCGAUAGCGCCAACGUUCUCAACUAUGACACGCAAAACGCGUGCUCCGUUGAAUGGAGUUUAUCAUG [C14U U44A] | ≤ -4.2 |
| GGAUCUUCUCGAUCUAACAAAAAAGACAAAUCUGCCACGAAGCUUGAGAGCAUCUUCAGAUGCAGAGGCGGCAGCCUUCGGUGGCGCGAUAGCGCCAACGUUCUCAACUAUGACACGCAAAACGCGUGCUCCGUUGAAUGGAGUUUAUCAUG [A39G G58A] | -1.68 |
| GGAUCUUCUCGAUCUAACAAAAAAGACAAAUCUGCCACAAAGCUUGAGAGCAUCUUCGGAUGCAGAGGCGGCAGCCUUCGGUGGCGCGAUAGCGCCAAGGUUCUCAACUAUGACACGCAAAACGCGUGCUCCGUUGAAUGGAGUUUAUCAUG [C99G] | -0.744 |
| GGAUCUUCUCGAUCUAACAAAAAAGACAAAUCUGCCACAAAGCUUGAGAGCAUCUUCGGAUGCAGAGGCGGCAGCCUUCGGUGGUGCGAUAGCGCCAACGUUCUCAACUAUGACACGCAAAAUGCGCGCUCCGUUGAAUGGAGUUUAUCAUG [C85U C123U U127C] | -1.83 |
| GGAUCUUCUCGAUCUAACAAAAAAGCCAAAUCUGCCACAAUGCUUGAGAGCAUCUUCGGAUGCAGAGGCGGCAGCCUUCGGUGGCGCGAUAGCGCCAACGUUCUCAACUAUGACACGCAAAACGCGUGCUCCGUUGAAUGGAGUUUAUCAUG [A26C A41U] | -3.05 |
| GGAUCUUCUCGAUCUAACAAAAAAGACAAAUCUGCCACAAAGCUUGAGAGCAUCUUCGGAUGCAGAGUCGUCAGCCUUCGGUGGCUCGAUAGCGCCUACGUUCUCAACUAUGACACGCAAAACGCGUGCUCCGUUGAAUGGAGUUUAUCAUG [G68U G71U G86U A97U] | ≤ -4.2 |
| GGAUCUUCUCGAUCUAACAAAAUAGACAAAUCUGACACAAAGCUUGAGAGCAUCUUCGGGUGCAGAGGCGGCAGCCUUCGGUGCCACGAUAGCGCAAACGUUCUCAACUAUGACACGCAAAACGCGUGCUCCGUUGAAUUGAGUUUAUCAUG [A23U C35A A60G G84C G86A C96A G140U] | ≤ -4.2 |
| GGAUCUUCUCGAUCUAACAAAAAAGACAAAGCUGCCACAAAGCUUGAGAGCAUCUUCGGUUGCAGAGGCGGCAGCCUUCGGUGGCGCGAUAGCGCCAACGUUCUCAACUAUGACACGCAAAACGCGUGCUCCGUUGAAUGGAGUUUAUCAUG [U31G A60U] | 0.29 |
| GGAUCUUCUCGAUCUAACAAAAAAGACAAAUCUGCCUCAAAGCUUGAGAGCAUCUUCGGAUGCACAGGCGGCAGCCUUCGGUGGCGCGAUAGCGCCAACGUUCUCAACUUUGACACGCAAAACGCGUGCUCCGUUCAAUGGAGUUUAUCAUG [A37U G65C A110U G136C] | ≤ -4.2 |
| GGAUCUUCUCGCUCUAACAAAAAAGACAAAUCUGCCACAAAGCUUGAGAGCGUCUUCGGAUGCAGAGGCGGCAGCCUUCGGUGGCGCGAUAGUGCCAACGCUCUUAACUAUGACACGCAAAACGCGUGCUCCGUUGAAUGGAGUUUAUCAUG [A12C A52G C93U U101C C105U] | -2.54 |
